Assay results as given in article PMC11187563, “The importance of tyrosines in multimers of cyclic RGD nonapeptides: towards αvβ6-integrin targeted radiotherapeutics” (RSC Medicinal Chemistry, 2024).
Read-outs that look alike come from different tables or passages of the source.

Columns and labels:
[1] = Ex vivo biodistribution of 177Lu-labeled peptide tetramers in H2009 xenografted SCID mice; details: CB17 SCID, mouse, iv, total radioactivity, H2009 bearing SCID mice; for tissue uptake at 72 h / tissue to tissue ratio at 72 h: 70 pmol, 3 d p.i.; for tissue uptake at 1.5 h / tissue to tissue ratio at 1.5 h: 118 pmol, 90 min p.i.
Experimental: (§1) The biodistribution of the ^177Lu-labeled peptide conjugates was investigated in severe combined immunodeficiency (SCID) mice bearing subcutaneous xenografts of the αvβ6-integrin expressing human lung adenocarcinoma cell line H2009 on their right shoulders. Two representative time points after i.v. administration (p.i.) were evaluated.
(§2) Analytical HPLC was performed on a Shimadzu (Kyoto, Japan) Prominence HPLC system equipped with either a Dr. Maisch ReproSil Pur C18 AQ 150 × 4.6 mm, 5 μm, 120 Å (AC1) or a Phenomenex Kinetex C18 150 × 4.6 mm 5 μm column (AC2). Semipreparative HPLC was performed on a Shimadzu HPLC system equipped with either a Dr. Maisch ReproSil Pur C18 AQ 250 × 10 mm, 5 μm, 120 Å column with 5 mL min^−1 flow (PC1) or a Dr. Maisch ReproSil Pur C18 150 × 30 mm, 5 μm, 120 Å column with 20 mL min^−1 flow (PC2). Solvents for both systems were water (A) and acetonitrile (B) each supplemented with 0.1% (vol) trifluoroacetic acid (TFA). ESI-MS spectra (positive mode) were recorded on a Shimadzu LC-MS 2020 single quadrupol mass spectrometer. Solvents for MS applications were water (A) and acetonitrile (B) each supplemented with 0.1% (vol) formic acid. The other experimental procedures (determination of log D7.4, cultivation of H2009 human lung adenocarcinoma cells, generation of tumor xenografts in CB17 SCID mice, and biodistribution) were performed as described before.[28] All animal experiments have been carried out according to applicable law and institutional guidelines of Technical University of Munich, and were approved by the responsible local authority (Regierung von Oberbayern). The H2009 cells were regularly authenticated and tested for mycoplasma contamination. DOTPI-tetraazide,[43]FF (previously termed AvB6),[29]FY,[34] and YY (also referred to as Tyr2-alkyne)[36] were synthesized as described previously.

[2] = tested on: αvβ6-integrin expressing human lung adenocarcinoma cell line H2009 xenografts; test: as above; details: H2009 bearing SCID mice
Experimental: as §1, §2

[3] = H2009 tumor, read-out: Tumor H2009 %IA/g
[4] = adrenals, read-out: Adrenals %IA/g
[5] = heart (myocard), read-out: Heart (myocard) %IA/g
[6] = kidneys, read-out: Kidneys %IA/g
[7] = large intestine (empty), read-out: Large intestine (empty) %IA/g
[8] = pancreas, read-out: Pancreas %IA/g
[9] = small intestine (empty), read-out: Small intestine (empty) %IA/g
[10] = stomach (empty), read-out: Stomach (empty) %IA/g
[11] = tumor/blood, read-out: tumor/organ ratio, Blood
[12] = tumor/heart (myocard), read-out: tumor/organ ratio, Heart (myocard)
[13] = tumor/liver, read-out: tumor/organ ratio, Liver
[14] = tumor/lung, read-out: tumor/organ ratio, Lung
[15] = tumor/pancreas, read-out: tumor/organ ratio, Pancreas
[16] = tumor/spleen, read-out: tumor/organ ratio, Spleen

CC(C)C[C@@H]1NC(=O)[C@H](CC(=O)O)NC(=O)CNC(=O)[C@H](CCCNC(=N)N)NC(=O)[C@H](Cc2ccccc2)NC(=O)[C@H](CCCCNC(=O)CCC(=O)NCCCC[C@H](NC(=O)[C@H](Cc2ccccc2)NC(=O)CNC(=O)CCc2cn(CCCNC(=O)CCP(=O)(O)CN3CCN(CP(=O)(O)CCC(=O)NCCCn4cc(CCC(=O)NCC(=O)N[C@@H](Cc5ccccc5)C(=O)N[C@@H](CCCCNC(=O)CCC(=O)NCCCC[C@H]5C(=O)N[C@@H](Cc6ccccc6)C(=O)N[C@@H](CCCNC(=N)N)C(=O)NCC(=O)N[C@@H](CC(=O)O)C(=O)N[C@@H](CC(C)C)C(=O)N[C@@H](C)C(=O)N[C@@H](Cc6ccc(O)cc6)C(=O)N6CCC[C@@H]6C(=O)N5C)C(=O)O)nn4)CCN(CP(=O)(O)CCC(=O)NCCCn4cc(CCC(=O)NCC(=O)N[C@@H](Cc5ccccc5)C(=O)N[C@@H](CCCCNC(=O)CCC(=O)NCCCC[C@H]5C(=O)N[C@@H](Cc6ccccc6)C(=O)N[C@@H](CCCNC(=N)N)C(=O)NCC(=O)N[C@@H](CC(=O)O)C(=O)N[C@@H](CC(C)C)C(=O)N[C@@H](C)C(=O)N[C@@H](Cc6ccc(O)cc6)C(=O)N6CCC[C@@H]6C(=O)N5C)C(=O)O)nn4)CCN(CP(=O)(O)CCC(=O)NCCCn4cc(CCC(=O)NCC(=O)N[C@@H](Cc5ccccc5)C(=O)N[C@@H](CCCCNC(=O)CCC(=O)NCCCC[C@H]5C(=O)N[C@@H](Cc6ccccc6)C(=O)N[C@@H](CCCNC(=N)N)C(=O)NCC(=O)N[C@@H](CC(=O)O)C(=O)N[C@@H](CC(C)C)C(=O)N[C@@H](C)C(=O)N[C@@H](Cc6ccc(O)cc6)C(=O)N6CCC[C@@H]6C(=O)N5C)C(=O)O)nn4)CC3)nn2)C(=O)O)N(C)C(=O)[C@H]2CCCN2C(=O)[C@H](Cc2ccc(O)cc2)NC(=O)[C@H](C)NC1=O [Compound 177Lu-GFK-Y4, metal not drawn]
tissue uptake at 72 h [1, 3]: 0.77 %ID/g
tissue uptake at 1.5 h [1, 3]: 1.74 %ID/g
tissue uptake at 72 h [1, 4]: 0.25 %ID/g
tissue uptake at 1.5 h [1, 4]: 0.95 %ID/g
tissue uptake at 72 h ([1]; blood, read-out: Blood %IA/g): 0.02 %ID/g
tissue uptake at 1.5 h ([1]; blood, read-out: Blood %IA/g): 0.44 %ID/g
tissue uptake at 72 h ([1]; bone, read-out: Bone %IA/g): 0.25 %ID/g
tissue uptake at 1.5 h ([1]; bone, read-out: Bone %IA/g): 0.49 %ID/g
tissue uptake at 72 h [1, 5]: 0.12 %ID/g
tissue uptake at 1.5 h [1, 5]: 0.32 %ID/g
tissue uptake at 72 h [1, 6]: 169 %ID/g
tissue uptake at 1.5 h [1, 6]: 274 %ID/g
tissue uptake at 72 h [1, 7]: 0.78 %ID/g
tissue uptake at 1.5 h [1, 7]: 1.76 %ID/g
tissue uptake at 72 h ([1]; liver, read-out: Liver %IA/g): 0.48 %ID/g
tissue uptake at 1.5 h ([1]; liver, read-out: Liver %IA/g): 1.16 %ID/g
tissue uptake at 72 h ([1]; lung, read-out: Lung %IA/g): 0.5 %ID/g
tissue uptake at 1.5 h ([1]; lung, read-out: Lung %IA/g): 2.88 %ID/g
tissue uptake at 72 h ([1]; muscle, read-out: Muscle %IA/g): 0.13 %ID/g
tissue uptake at 1.5 h ([1]; muscle, read-out: Muscle %IA/g): 0.26 %ID/g
tissue uptake at 72 h [1, 8]: 0.08 %ID/g
tissue uptake at 1.5 h [1, 8]: 0.14 %ID/g
tissue uptake at 72 h [1, 9]: 0.15 %ID/g
tissue uptake at 1.5 h [1, 9]: 0.73 %ID/g
tissue uptake at 72 h ([1]; spleen, read-out: Spleen %IA/g): 0.86 %ID/g
tissue uptake at 1.5 h ([1]; spleen, read-out: Spleen %IA/g): 0.89 %ID/g
tissue uptake at 72 h [1, 10]: 2.42 %ID/g
tissue uptake at 1.5 h [1, 10]: 3.29 %ID/g
tissue to tissue ratio at 72 h ([1]; tumor / adrenals, read-out: tumor/organ ratio, Adrenals): 3.7
tissue to tissue ratio at 72 h ([1]; tumor / bone, read-out: tumor/organ ratio, Bone): 3.2
tissue to tissue ratio at 72 h ([1]; tumor / large intestine (empty), read-out: tumor/organ ratio, Large intestine (empty)): 1.4
tissue to tissue ratio at 72 h ([1]; tumor / muscle, read-out: tumor/organ ratio, Muscle): 6.9
tissue to tissue ratio at 72 h ([1]; tumor / small intestine (empty), read-out: tumor/organ ratio, Small intestine (empty)): 5.6
tissue to tissue ratio at 72 h ([1]; tumor / stomach (empty), read-out: tumor/organ ratio, Stomach (empty)): 0.4
tissue to tissue ratio at 1.5 h ([1]; tumor/adrenals, read-out: tumor/organ ratio, Adrenals): 2.2
tissue to tissue ratio at 72 h [1, 11]: 56.1
tissue to tissue ratio at 1.5 h [1, 11]: 4.3
tissue to tissue ratio at 1.5 h ([1]; tumor/bone, read-out: tumor/organ ratio, Bone): 3.6
tissue to tissue ratio at 72 h [1, 12]: 6.9
tissue to tissue ratio at 1.5 h [1, 12]: 5.5
tissue to tissue ratio at 1.5 h ([1]; tumor/large intestine (empty), read-out: tumor/organ ratio, Large intestine (empty)): 1.1
tissue to tissue ratio at 72 h [1, 13]: 2
tissue to tissue ratio at 1.5 h [1, 13]: 1.7
tissue to tissue ratio at 72 h [1, 14]: 1.8
tissue to tissue ratio at 1.5 h [1, 14]: 0.6
tissue to tissue ratio at 1.5 h ([1]; tumor/muscle, read-out: tumor/organ ratio, Muscle): 7.2
tissue to tissue ratio at 72 h [1, 15]: 9.9
tissue to tissue ratio at 1.5 h [1, 15]: 12.2
tissue to tissue ratio at 1.5 h ([1]; tumor/small intestine (empty), read-out: tumor/organ ratio, Small intestine (empty)): 2.5
tissue to tissue ratio at 72 h [1, 16]: 1
tissue to tissue ratio at 1.5 h [1, 16]: 2.1
tissue to tissue ratio at 1.5 h ([1]; tumor/stomach (empty), read-out: tumor/organ ratio, Stomach (empty)): 0.6
tumor/organ ratio, Kidneys ([2]; 90 min p.i.): 0.0
tumor/organ ratio, Kidneys ([2]; 3 d p.i.): 0.0
